# Data from publication PMC9258132, “Multi-omics profiling identifies a deregulated FUS-MAP1B axis in ALS/FTD–associated UBQLN2 mutants”.
# Key:
# [1] = biological target: MBP-FUS-His6 S439E (UniProt P35637 1-526, S439E); assay: EMSA; 5 mM MgCl2, 0.1 mg/ml yeast tRNA; 5 nM RNA, 0-10 uM protein; 20 mM NaPO4 pH 8, 150 mM NaCl, 5% glycerol, 1 mM DTT, 5 mM MgCl2, 0.5 mg/ml BSA, 0.1 mg/ml yeast tRNA, 1 U/ul RNase inhibitor, 20 min RT; 6% native PAGE in 0.5x TBE; settings: protein: recombinant; tags: N-terminal MBP, C-terminal His6; hairpin with 3' single-stranded tail
# [2] = biological target: MBP-FUS-His6 S439A (UniProt P35637 1-526, S439A); assay: as above; settings: protein: recombinant; tags: N-terminal MBP, C-terminal His6; hairpin with 3' single-stranded tail
# Chain of MBP-FUS-His6 S439A (P35637 whole entry S439A): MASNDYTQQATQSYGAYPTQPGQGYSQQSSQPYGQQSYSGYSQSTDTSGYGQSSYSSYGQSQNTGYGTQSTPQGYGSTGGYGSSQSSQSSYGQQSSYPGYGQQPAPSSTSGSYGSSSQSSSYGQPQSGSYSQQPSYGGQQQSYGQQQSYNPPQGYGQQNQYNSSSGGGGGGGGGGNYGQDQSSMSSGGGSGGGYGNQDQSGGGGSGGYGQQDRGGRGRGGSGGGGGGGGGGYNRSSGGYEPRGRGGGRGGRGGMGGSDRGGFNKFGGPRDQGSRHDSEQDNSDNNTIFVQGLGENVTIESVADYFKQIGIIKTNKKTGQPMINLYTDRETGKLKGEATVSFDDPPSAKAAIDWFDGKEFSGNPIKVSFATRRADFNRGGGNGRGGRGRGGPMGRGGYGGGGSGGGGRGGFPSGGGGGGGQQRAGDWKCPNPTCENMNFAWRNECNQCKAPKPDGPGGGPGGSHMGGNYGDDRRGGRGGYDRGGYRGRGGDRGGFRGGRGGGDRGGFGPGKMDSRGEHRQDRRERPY
# Chain of MBP-FUS-His6 S439E (P35637 whole entry S439E): as the sequence (P35637 whole entry S439A) above, with A439E counted along it
binder,measurement,setting,value
GGAUCUUUAACUACUCAAGAUACUGAACAUGACAUGGUA (structured_RNA) [SON pre-mRNA stem loop with downstream GGU motif],binding result,[1],no binding
same,binding result,[2],binds
